Reference: patent US20250236644A1 (University of Washington, published 2025)

What was measured:
[1] = biological target: T1, TAMRA-labeled effector peptide cs074B (5(6)-TAMRA label coupled on resin after synthesis); experiment: fluorescence polarization kinetics; slope of kapp against hinge concentration
T1 construct: Chemically synthesized; also called TAMRA-cs074B
T1 peptide: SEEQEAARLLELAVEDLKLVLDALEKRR
Protocol: (§1) All FP measurements were performed at 25° C. in 96-well plates (Corning 3686) using a Synergy Neo2™ plate reader and a 530/590 nm filter cube. The buffer for all FP measurements was 20 mM Tris-HCl, 100 mM NaCl, 0.05% v/v TWEEN20 at pH 8. Titrations were carried out in 96-well format, with 4 replicates per plate and 24 data points per titration (23 steps of two-fold serial dilution of hinges in the presence of TAMRA-labeled peptide at a constant concentration between 0.1 nM and 1 nM) with a final sample volume of 80 μl per well. Titration plates were incubated overnight at room temperature before measuring to ensure complete equilibration. The polarization signal S (as calculated by the Neo2™ software) was fitted to the equation
For FP kinetics experiments a 2× peptide solution and 8 different 2× hinge solutions at different concentrations were prepared separately. 40 μl of each hinge solution were mixed with 40 μl peptide solution using a multichannel pipet and the measurement was started immediately after mixing. Polarization signals S at each concentration were fitted individually to the equation

[2] = biological target: T1, TAMRA-labeled effector peptide cs074B; experiment: fluorescence polarization titration; TAMRA-peptide constant, unlabeled hinge varied
Protocol: as §1

effector protein 3hb03 = biological target: T2, effector protein 3hb03; experiment: SEC binding experiment
T2 construct: Three-helix bundle built around peptide cs074B
T2 chain: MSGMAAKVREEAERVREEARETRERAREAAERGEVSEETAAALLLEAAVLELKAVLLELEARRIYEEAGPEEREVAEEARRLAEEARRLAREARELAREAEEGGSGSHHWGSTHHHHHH

effector protein 3hb04 = biological target: T3, effector protein 3hb04; experiment: SEC binding experiment
T3 construct: Three-helix bundle built around peptide cs074B
T3 chain: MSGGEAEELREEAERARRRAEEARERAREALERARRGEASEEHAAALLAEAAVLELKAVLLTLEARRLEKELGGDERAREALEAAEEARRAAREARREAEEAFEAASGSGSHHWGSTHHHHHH

effector protein 3hb08 = biological target: T4, effector protein 3hb08; experiment: SEC binding experiment
T4 construct: Three-helix bundle built around peptide cs074B
T4 chain: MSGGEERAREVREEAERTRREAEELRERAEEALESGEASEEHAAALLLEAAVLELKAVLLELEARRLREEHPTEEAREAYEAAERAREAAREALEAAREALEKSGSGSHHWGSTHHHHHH

effector protein 3hb11 = biological target: T5, effector protein 3hb11; experiment: SEC binding experiment
T5 construct: Three-helix bundle built around peptide cs074B
T5 chain: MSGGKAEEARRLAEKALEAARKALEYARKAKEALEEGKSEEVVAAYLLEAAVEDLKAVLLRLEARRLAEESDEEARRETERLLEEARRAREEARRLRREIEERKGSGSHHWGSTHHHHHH

effector protein 3hb12 = biological target: T6, effector protein 3hb12; experiment: SEC binding experiment
T6 construct: Three-helix bundle built around peptide cs074B
T6 chain: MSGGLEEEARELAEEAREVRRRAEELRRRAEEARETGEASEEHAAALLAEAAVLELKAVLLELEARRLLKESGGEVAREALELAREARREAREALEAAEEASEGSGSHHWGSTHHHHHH

[3] = biological target: T1, TAMRA-labeled effector peptide cs074B; experiment: fluorescence polarization titration; TAMRA-peptide constant, hinge varied
Text: (§2) We used our hinge design approach to generate hinge-peptide pairs that span a wide structural space (FIGS. 1D, 2A, 6, 7). We experimentally tested multiple rounds of designs, using both DHRs (21) and helical junctions (22) as input scaffolds, and improving individual steps of the design pipeline between iterations. Designs for which hinge and GFP-fused peptide were soluble and interacted as judged by size exclusion chromatography (SEC, FIGS. 7-8) were selected for further characterization by fluorescence polarization (FP). […] To circumvent the bottleneck of finding soluble peptide sequences, we also sought to design hinges that bind to a given target peptide. Starting from design cs201, we used a modified version of our design pipeline to redesign the hinge to bind peptides cs074B or cs221B, respectively, which have similar hydrophobic fingerprints as the original target peptide cs201B.
as §1

[4] = biological target: T7, TAMRA-labeled effector peptide cs221B (5(6)-TAMRA label coupled on resin after synthesis); experiment: FP titration, 1 nM TAMRA-labeled peptide, reducing conditions
T7 construct: also called TAMRA-cs221B
T7 peptide: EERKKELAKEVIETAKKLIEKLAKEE
Text: To test the effect of the conformational pre-equilibrium on effector binding, we introduced disulfide “staples” that lock the hinge in one conformation. Using FP we analyzed peptide binding to stapled versions of hinge cs221 (FIG. 5A,B). […] Using the pre-equilibrium model described above, the observed association rates provide an estimate of the fraction of hinge that is in state Y in absence of the peptide: a 200-fold higher observed on rate for the locked Y variant indicates a 200-fold higher fraction of hinge in state Y compared to the original hinge. Assuming that the locked Y variant is 100% in state Y and assuming that the microscopic rate constant k₂ is identical for the locked Y hinge and state Y of the original hinge, this would indicate that the original hinge is 99.5% in state X and 0.5% in state Y at equilibrium.
All FP measurements were performed at 25° C. in 96-well plates (Corning 3686) using a Synergy Neo2™ plate reader and a 530/590 nm filter cube. The buffer for all FP measurements was 20 mM Tris-HCl, 100 mM NaCl, 0.05% v/v TWEEN20 at pH 8. […] The polarization signal S (as calculated by the Neo2™ software) was fitted to the equation

effector protein 3hb32 = biological target: T8, effector protein 3hb32; experiment: SEC binding experiment
T8 chain: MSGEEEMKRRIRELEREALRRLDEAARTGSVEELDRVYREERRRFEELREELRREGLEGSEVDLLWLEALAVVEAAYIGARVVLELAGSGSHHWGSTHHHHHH

[5] = biological target: T9, TAMRA-labeled effector peptide cs269B (5(6)-TAMRA label coupled on resin after synthesis); experiment: fluorescence polarization titration; TAMRA-peptide constant, hinge varied
T9 construct: also called TAMRA-cs269B
T9 peptide: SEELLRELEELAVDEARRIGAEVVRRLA
Text: as §2, §1

[6] = biological target: T9, TAMRA-labeled effector peptide cs269B; experiment: fluorescence polarization kinetics; 5 nM TAMRA-peptide, slope of kapp against hinge concentration
effector protein 3hb24 = biological target: T10, effector protein 3hb24; experiment: SEC binding experiment
T10 chain: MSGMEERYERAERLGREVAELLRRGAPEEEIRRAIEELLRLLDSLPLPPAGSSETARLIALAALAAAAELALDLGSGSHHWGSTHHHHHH

[7] = biological target: T11, TAMRA-labeled effector peptide cs230B (5(6)-TAMRA label coupled on resin after synthesis); experiment: fluorescence polarization titration; TAMRA-peptide constant, hinge varied
T11 construct: also called TAMRA-cs230B
T11 peptide: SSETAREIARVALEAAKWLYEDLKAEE
Text: as §2, §1

B1: FRET(extension) cs074F, unlabeled (designed binder)
chain: DEEVQEAVERAEELREEAEELIKKARKTGDPELLRKALEALECAVRAVEEAIKRNPDNDEAVETAVRLARELKKVAEELQERAKKTGDPELLKLALRALKVAVRAVKLAIKSNPDNEEAVKTAVRLARELLKVAEELKERAEKTGDPRLLLLAAEAIAWAIEAVFLAAKASENTEGALEAARAAVKLAEVAKRIAKLLQRDAKKEGDPELLKLALRALELAVRAVELAIKENPDNDEAVETAVRLARELKKVAEELQERAKKTGDPELLKLALRALEVAVRAVELAIKSNPDNEEAVETAKRLAEELRKVAELLEERACETGDPELQELAKRAKEVADRARELAKKSNPNNGSHHHHHH
notes: also called unlabeled extended hinge cs074F
kon [1]: 100000 M⁻¹ s⁻¹ | Kd [2]: < 2 nM

B2: hinge cs074 (designed binder)
chain: MSGDEEVQEAVERAEELREEAEELIKKARKTGDPELLRKALEALKEAVRAVKEAIKRNPDNEEAVKTAVRLARELLKVAEELKERAEKTGDPRLLLLAAEAIAWAIEAVFLAAKASENTEGALEAARAAVKLAEVAKRIAKLLQRDAKKEGDPELLKLALRALELAVRAVELAIKENPDNEEAVETAKRLAEELRKVAELLEERAKETGDPELQELAKRAKEVADRARELAKKSNPNNGSGSHHWGSTHHHHHH
notes: De novo designed two-state hinge; the entry includes the C-terminal SNAC/His tag
binding result (effector protein 3hb03): binds | binding result (effector protein 3hb04): binds | binding result (effector protein 3hb08): binds | binding result (effector protein 3hb11): binds | binding result (effector protein 3hb12): binds | Kd [3]: 0.5 nM | kon [1]: 64000 M⁻¹ s⁻¹

B3: variant cs221_lockedX, reducing conditions (DTT) (designed binder)
chain: MSGEMKEEIRRLAEELRERTKDEEVRELAREAARLAEESDDEEVKEVVKKALEAALKSKDEEVIRLLLLAAVCAAAAARSGSPEEKLEIAKKALELAMKSKDEEVIRLALLAAVLACRSDDEEVLKKVKEALEKAMESKDVEEIRERLREAVEVARAGSGSHHWGSTHHHHHH
notes: also called locked X with DTT
binding result [4]: binds

B4: hinge cs269 (designed binder)
chain: MSGDEERVRELAERASREAERAVRSGSEESLEEALRNVEELIRKSDSEEARVRVAEAAVRAAAEAAARSGTVEAAAVAVIFTARVLQIVSSSEEAVVRVLAAAAAAAARVAVELGTEEALETALRFVELLVRLADSDEARQRVLRSASESARRSAEESGSERAREVAERFRERIERNQGSGSHHWGSTHHHHHH
binding result (effector protein 3hb32): binds | Kd [5]: 83 nM | kon [6]: 2500 M⁻¹ s⁻¹

B5: hinge cs230 (designed binder)
chain: MSGTKEEKERIERIEKEVRSPDPENILEAVRKALELFRENPSEEAKELLKRAIEAALRSEDERAILEALRAALEAYRQGAGDREGLLEAIRVAIRRAAESEDERAILEAVRAARILLEAERTEEAKELLRVAIERAKKSPDPEAQREAKRAEEELRKEDGSGSHHWGSTHHHHHH
binding result (effector protein 3hb24): binds | Kd [7]: 2800 nM
